Measured values: paper PMC6793842

B1: unnamed (parent)
chain 1: FENAIKKTKNQENNLTLLPIKSTEEEKDDIKNGKDIKKEIDNDKENIKTNNAKDHSTYIKSYLNTNVNDGLKYLFIPSHNSFIKKYSVFNQINDGMLLNEKNDVKNNEDYKNVDYKNVNFLQYDFKELSNYNIANSIDILQEKEGHLDFVIIPHYTFLDYYKHLSYNSIYHKYSTHGKYIAVDAFIKKINERYDQVKSKCNDIKNDLIATIKKLEHPYDINNKNDDSYRYDISEEIDDKSEETDDETEEVEDSIQDTDSNHTPSNKKKNDLMNRTFKKMMDEYNTKKKKLIKCIKNHENDFNKICMDMKNYGTNLFEQLSCYNNNFCNTNGIRYHYDEYIHKLILSVKSKNLNKDLSDMTNILQQSELLLTNLNKKMGSYIYIDTIKFIHKEMKHIFNRIEYHTKIINDKTKIIQDKIKLNIWRTFQKDELLKRILDMSNEYSLFITSDHLRQMLYNTFYSKEKHLNNIFHHLIYVLQMKFNDVPIKMEYFQTYKKNKPLTQ
chain 2: EPGTVFTTVEDLGSKILLTCSLNDSATEVTGHRWLKGGVVLKEDALPGQKTEFKVDSDDQWGEYSCVFLPEPMGTANIQLHGPPRVKAVKSSEHINEGETAMLVCKSESVPPVTDWAWYKITDSEDKALMNGSESRFFVSSSQGRSELHIENLNMEADPGQYRCNGTSSKGSDQAIITLRVRSHLAAL

Variants of: B1
Assay: SPR
Details: read off a plot; for response (response units): with partner chain of the complex shown, plateau of the highest curve of four 2-fold serial dilutions (600 to 75 nM); for screen value: with partner chain of the complex shown;

| Variant | response (response units) | screen value [s] |
| --- | --- | --- |
| chain 1 Y173S | 260 | 2.3 |
| chain 1 H176Y | 340 | 2.4 |
| chain 1 Y179C | 130 | 1.5 |
| chain 1 R192T | 180 | 2.3 |
| chain 1 Q195K | 360 | 2.4 |
| chain 1 D124H | 220 | 2.6 |
